According to paper PMC2811748, “H^+-Independent Glutamine Transport in Plant Root Tips” (PLoS ONE, 2010):

Substrate: NC(=O)CC[C@H](N)C(=O)O
Experiment: cells, lysate or membranes
Type: cell-based, Arabidopsis thaliana

B1: CAT8 (Arabidopsis thaliana) (protein)
chain: MIPASMEEAHQLESRSDDLSQRRSYWRWRKQDFFPEFSFQSFSTYKSALSATCPRLADRLLSRSSDAYELDAARRESENPMRRCLTWWDLLWLSFGSVVGSGVFVITGQEARVGAGPAVVLSYAISGVSALLSVLCYAEFGVEIPVAGGSFSYLRVELGDFIAFIAAGNILLEAMVGAAGLGRSWSSYLASLVKNDSDYFRIKVDSFAKGFDLLDPVAVAVLLVANGIAMTGTKRTSWLNLITSMVTVCIIVFIVVVGFTHSKTSNLVPFFPYGAKGVVQSAAVVYWSYTGFDMVANMAEETEKPSRDIPIGLVGSMSMITVVYCLMALALTMMVKYTEIDANAAYSVAFAQIGMKWAKYLVGICALKGMTTSLLVGSLGQARYTTQIARSHMIPPWFALVHPKTGTPIYATLLVTILSSIISFFTSLEVLSSVFSFATLFIFMLVAVALLVRRYYVKDVTPEAGLLKFLGFLFLIIASSIGVSALWNSGVKGWIAYTVTGVIWFIGTLGLALLPKYRVPKVWGVPLVPWLPSFSIAMNLFLIGSLGYVAFLRFIICTMVMLLYYLFVGLHATYDVAHQPLEEAKFEGER
notes: CAT8 (At1g17120) expressed in Xenopus oocytes and in yeast 22Δ8AA
- Km: 100 µM
